Test results as given in patent US11332499B2, “Cyclic peptides and methods of use thereof” (Regents of the University of Minnesota, priority 2018, dated 2022).
Values joined by “and” are separate entries in the source; they are usually repeats but may differ in a detail not shown here. Identical values can stand only once. Like-named read-outs stand apart in the source and are kept apart here. Bridge positions count the residues as written; N and C are the ends. Square brackets hold non-standard residues; d marks the D form. Ends that are not written are not given here.

What was measured:
mMC1R [1] = molecular target: T1, mMC1R (Mus musculus, UniProt Q01727); assay: AlphaScreen cAMP assay, agonist activity, HEK293 cells stably expressing mMC1R; type: cell-based; conditions: Table 2; at 100 μM, relative to NDP-MSH
T1 construct: expressed in transfected cells
T1 sequence (Q01727 whole entry): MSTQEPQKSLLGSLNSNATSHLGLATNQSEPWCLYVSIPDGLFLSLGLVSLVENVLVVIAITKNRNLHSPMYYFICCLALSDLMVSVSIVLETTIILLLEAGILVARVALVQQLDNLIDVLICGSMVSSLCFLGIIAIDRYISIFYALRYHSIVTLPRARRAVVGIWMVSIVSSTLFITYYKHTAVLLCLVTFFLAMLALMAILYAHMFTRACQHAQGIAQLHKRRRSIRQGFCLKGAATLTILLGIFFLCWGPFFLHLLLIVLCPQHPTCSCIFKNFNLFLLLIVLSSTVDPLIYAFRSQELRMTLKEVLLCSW

mMC3R [2] = molecular target: T2, mMC3R (Mus musculus, UniProt P33033); assay: AlphaScreen cAMP assay, agonist activity, HEK293 cells stably expressing mMC3R; type: cell-based; conditions: Table 2; at 100 μM
T2 construct: expressed in transfected cells
T2 sequence (P33033 whole entry): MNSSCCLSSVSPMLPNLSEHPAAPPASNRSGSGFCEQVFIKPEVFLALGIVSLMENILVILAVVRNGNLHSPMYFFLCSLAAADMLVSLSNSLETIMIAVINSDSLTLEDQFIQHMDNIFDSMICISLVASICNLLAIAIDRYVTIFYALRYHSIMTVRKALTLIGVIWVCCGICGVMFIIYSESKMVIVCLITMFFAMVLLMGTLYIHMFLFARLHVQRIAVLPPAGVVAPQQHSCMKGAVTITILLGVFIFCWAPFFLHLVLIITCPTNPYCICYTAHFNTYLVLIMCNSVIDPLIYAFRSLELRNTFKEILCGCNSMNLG

mMC5R [3] = molecular target: T3, mMC5R (Mus musculus, UniProt P41149); assay: AlphaScreen cAMP assay, agonist and inverse agonist activity, HEK293 cells stably expressing mMC5R; type: cell-based; conditions: Table 2; at 100 μM
T3 construct: expressed in transfected cells
T3 sequence (P41149 whole entry): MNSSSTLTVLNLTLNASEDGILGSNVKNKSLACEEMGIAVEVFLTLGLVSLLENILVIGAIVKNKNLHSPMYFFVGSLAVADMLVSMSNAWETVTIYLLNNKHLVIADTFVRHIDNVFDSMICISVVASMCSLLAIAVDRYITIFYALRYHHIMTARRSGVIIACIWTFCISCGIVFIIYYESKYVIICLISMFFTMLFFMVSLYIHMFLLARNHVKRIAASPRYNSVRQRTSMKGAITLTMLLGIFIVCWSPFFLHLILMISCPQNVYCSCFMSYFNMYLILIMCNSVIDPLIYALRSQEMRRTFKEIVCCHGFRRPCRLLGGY

mMC4R [4] = molecular target: T4, mMC4R (Mus musculus, UniProt P56450); conditions: Example 4; from Ki values
T4 sequence (P56450 whole entry): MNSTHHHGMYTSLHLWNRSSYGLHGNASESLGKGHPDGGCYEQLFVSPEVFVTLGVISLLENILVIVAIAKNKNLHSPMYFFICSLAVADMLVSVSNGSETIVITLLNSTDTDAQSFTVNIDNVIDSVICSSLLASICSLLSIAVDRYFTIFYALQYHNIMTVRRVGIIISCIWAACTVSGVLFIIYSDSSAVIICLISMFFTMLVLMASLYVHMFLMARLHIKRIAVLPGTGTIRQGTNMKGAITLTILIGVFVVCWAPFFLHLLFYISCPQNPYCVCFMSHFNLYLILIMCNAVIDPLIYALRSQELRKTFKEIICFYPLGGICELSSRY

mMC4R [5] = molecular target: T4, mMC4R; assay: AlphaScreen cAMP assay, agonist activity, HEK293 cells stably expressing mMC4R; type: cell-based; set-up: expressed in transfected cells; conditions: Table 2; at 100 μM
hMC1R = hMC1R (Homo sapiens, UniProt Q01726); conditions: inhibition of α-MSH activity, cited from earlier work
hMC1R, sequence (Q01726 whole entry): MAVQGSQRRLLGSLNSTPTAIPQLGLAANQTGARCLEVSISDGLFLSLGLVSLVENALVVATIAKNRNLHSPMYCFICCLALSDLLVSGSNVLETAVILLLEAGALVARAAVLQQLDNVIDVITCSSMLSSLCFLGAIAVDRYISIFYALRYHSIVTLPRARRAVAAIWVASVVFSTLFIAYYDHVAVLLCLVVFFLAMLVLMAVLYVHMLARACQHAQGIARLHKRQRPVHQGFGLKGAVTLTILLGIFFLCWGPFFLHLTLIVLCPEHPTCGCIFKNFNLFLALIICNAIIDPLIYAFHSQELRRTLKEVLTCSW

hMC3R = hMC3R (Homo sapiens, UniProt P41968); conditions: inhibition of α-MSH activity; cited from earlier work
hMC3R, sequence (P41968 whole entry): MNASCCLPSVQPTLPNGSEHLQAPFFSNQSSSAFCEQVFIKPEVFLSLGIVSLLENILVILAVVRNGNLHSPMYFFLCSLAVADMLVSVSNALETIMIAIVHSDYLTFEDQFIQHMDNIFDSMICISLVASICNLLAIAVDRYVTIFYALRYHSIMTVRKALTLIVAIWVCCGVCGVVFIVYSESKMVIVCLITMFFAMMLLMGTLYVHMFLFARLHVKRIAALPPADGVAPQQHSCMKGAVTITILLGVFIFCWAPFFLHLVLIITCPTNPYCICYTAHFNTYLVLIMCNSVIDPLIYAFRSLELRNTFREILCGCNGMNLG

MC4R [6] = molecular target: T5, MC4R (Homo sapiens, UniProt P32245); set-up: expressed in transfected cells; conditions: inhibition of α-MSH activity; cited from earlier work
Target sequence in this assay (P32245 whole entry): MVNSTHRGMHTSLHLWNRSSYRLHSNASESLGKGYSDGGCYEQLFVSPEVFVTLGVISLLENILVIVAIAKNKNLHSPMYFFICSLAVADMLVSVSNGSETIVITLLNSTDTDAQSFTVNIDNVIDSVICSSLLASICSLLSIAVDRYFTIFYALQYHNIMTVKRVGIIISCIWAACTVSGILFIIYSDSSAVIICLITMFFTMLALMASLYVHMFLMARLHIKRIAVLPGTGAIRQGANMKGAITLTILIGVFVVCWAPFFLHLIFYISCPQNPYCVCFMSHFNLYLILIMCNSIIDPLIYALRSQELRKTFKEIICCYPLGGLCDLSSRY

MC1R = MC1R (Mus musculus, UniProt Q01727); conditions: previously reported, read-out: MC1R agonist potency, cited from earlier work
MC1R, sequence (Q01727 whole entry): as the sequence (Q01727 whole entry) above

MC4R [7] = molecular target: T5, MC4R; conditions: previously reported; cited from earlier work
Target sequence in this assay (P32245 whole entry, species assumed): as the sequence (P32245 whole entry) above

MC3R = MC3R (Mus musculus, UniProt P33033); conditions: β-galactosidase reporter gene assay; previously reported; cited from earlier work
MC3R, sequence (P33033 whole entry): as the sequence (P33033 whole entry) above

MC4R [8] = molecular target: MC4R (Mus musculus, UniProt P56450); conditions: β-galactosidase reporter gene assay; previously reported; cited from earlier work
MC4R (Mus musculus, UniProt P56450), sequence (P56450 whole entry): as the sequence (P56450 whole entry) above

hMC4R-Kir7.1(M125R) [9] = molecular target: T6, hMC4R-Kir7.1(M125R) (Homo sapiens, UniProt P32245); assay: Kir7.1 thallium flux assay, HEK293 cells expressing human MC4R and Kir7.1 (M125R); type: cell-based; conditions: antagonist Ki / Kir7.1 apparent potency
T6 construct: expressed in transfected cells; Kir7.1 tetracycline-induced)
T6 sequence (P32245 whole entry, stated change not applied): as the sequence (P32245 whole entry) above
Description: In this assay, the Kir7.1 (M125R) variant was used since it previously was reported to result in higher unitary conductance compared to the native channel.^39
The compound with the highest apparent potency.
HEK293 cells stably expressing the human MC4R and Kir7.1 (M125R) were grown in MEM medium with 10% FBS without antibiotics, suspended in medium plus 1 μg ml^−1 tetracycline (to induce expression of the transfected tet-sensitive Kir7.1 gene) and plated (20 μL) in 384-well poly-D-lysine coated optical bottom plates (BD Biosciences) at 20,000 cells per well. Plates were incubated overnight for 16-24 h in the cell incubator at 37° C., 5% CO2. […] Plates were incubated in the dark for 1 h at room temperature and dye solution was removed. Upon addition of 20 μL 1×HBSS buffer, a liquid handler added 20 μL of ligand solution to entire plate simultaneously (ligands were prepared by serial dilution in 1×HBSS, 20 mM HEPES, 0.1% BSA, pH 7.3). Plates were incubated in the dark for 20 min (unless otherwise indicated). After a baseline reading on a Thallos Plate-reader (Vanderbilt, Tenn.), 10 μL of a thallium solution (1×HBSS, 20 mM HEPES, 2 mM Tl, pH 7.3) was loaded and fluorescence generated by thallium influx was recorded for 10 min. The signal was normalized to an untreated control.

free-feeding mice [10] = assay: Mouse feeding study, intracerebroventricular (ICV) administration; type: in vivo; conditions: 10 nmol
Description: Cannulation surgeries were performed to place a cannula into the lateral cerebral ventricle as previously reported.^23,67,76 Mice were anesthetized with a mixture of xylazine (5 mg/kg) and ketamine (100 mg/kg) administered intraperitoneal (IP) and placed in a stereotaxic apparatus (David Kopf Instruments) that was used to guide the cannula placement. […] After surgery, flunixin meglumine (FluMegluine, Clipper Distribution Company) and 0.5 mL of 0.9% saline (Hospira, Lake Forrest, Ill.) was administered subcutaneously to aid in recovery. Mice recovered for at least 7 days prior to cannula placement validation. Mice were housed individually after surgery and for the remainder of the experiments.
Cannula placement was validated by the feeding response after ICV administration of 2.5 μg of human (h)PYY3-36 (cat # H8585; Bachem), as described previously.^23,67,75-76 Mice received saline treatment and hPYY treatment on different days separated by a washout period of at least 3 days in a crossover design nocturnal feeding paradigm. In this paradigm, compound or saline is administered 2 h prior to lights out (t=0 h) and body weight and food are measured. Mice have free access to food and water. At 4 h post-administration, food is measured. A mouse with a validated properly placed cannula consumed at least 0.8 g more food after hPYY administration compared to saline administration at 4 h.
All ICV and IT administration experiments utilized a crossover design with free access to standard chow. Mice were housed in RAR supplied conventional mouse cages. […] Matching vehicle controls (3% v/v DMSO in saline and 20% solutol) were prepared in parallel. The day of compound administration, an aliquot of stock solution was diluted with saline to the desired experimental dose in 3 μL, in parallel with vehicle control. For ICV administration, the desired experimental dose (3 μL) or vehicle control (3 μL) was delivered 2 h before lights out (t=0 h). For IT administration, the desired experimental dose (5 μL) or vehicle control (5 μL) was delivered 2 h before lights out (t=0 h). Food intake and mouse weight was manually measured at t=0, 2, 4, 6, 8, 24, 48, and 72 h post-injection. Mice recovered 6-7 days between treatments to reestablish pretreatment body weight and feeding patterns.

free-feeding mice [11] = assay: Mouse feeding study, intrathecal (IT) administration (Example 5); type: in vivo; conditions: 10 nmol
Description: All studies were performed in standard mouse polycarbonate conventional cages provided by the University of Minnesota's Research Animal Resources (RAR), and were changed weekly by laboratory research staff.
All ICV and IT administration experiments utilized a crossover design with free access to standard chow. Mice were housed in RAR supplied conventional mouse cages. Compound MDE3-119-8e was dissolved in a stock solution of 10 nmols/μL in 3% v/v DMSO (Sigma Aldrich)/saline (0.9% sodium chloride, Hospira Inc., Lake Forest, Ill.). Ligands MDE3-119-2c and MDE3-119-10c were dissolved in 20% solutol (Sigma Aldrich). Matching vehicle controls (3% v/v DMSO in saline and 20% solutol) were prepared in parallel. The day of compound administration, an aliquot of stock solution was diluted with saline to the desired experimental dose in 3 μL, in parallel with vehicle control. For ICV administration, the desired experimental dose (3 μL) or vehicle control (3 μL) was delivered 2 h before lights out (t=0 h). […] Food intake and mouse weight was manually measured at t=0, 2, 4, 6, 8, 24, 48, and 72 h post-injection. […]
For feeding experiments with compound MDE3-119-10c, data were analyzed using the PRISM program (v4.0; GraphPad Inc.) by two-way ANOVA with a Sidak's multiple comparison post hoc test.

MC4R [12] = molecular target: T5, MC4R; assay: AlphaScreen cAMP assay, antagonist activity (Schild, NDP-MSH) at hMC4R; type: cell-based; set-up: expressed in transfected cells; conditions: Example 5
Target sequence in this assay (P32245 whole entry): as above
Description: (§1) Briefly, cells 70-90% confluent were dislodged with Versene (Gibco®) at 37° C. and plated 10,000 cells/well in a 384-well plate (Optiplate™) with 10 μL freshly prepared stimulation buffer (1×HBSS, 5 mM HEPES, 0.5 mM IBMX, 0.1% BSA, pH=7.4) with 0.5 μg anti-cAMP acceptor beads per well.
(§2) Following stimulation, streptavidin donor beads (0.5 μg) and biotinylated-cAMP (0.62 μmol) were added to the wells in a subdued light environment with 10 μL lysis buffer (5 mM HEPES, 0.3% Tween-20, 0.1% BSA, pH=7.4) and the plates were incubated in the dark at room temperature for an additional 2 hr.
(§3) The EC50 values represent the mean of duplicate replicates performed in at least three independent experiments. The EC50 estimates and associated standard errors (SEM) were determined by fitting the data to a nonlinear least-squares analysis using the PRISM program (v4.0, GraphPad Inc.). The ligands were assayed as TFA salts and not corrected for peptide context.

MC4R [13] = molecular target: T5, MC4R; assay: Competitive radioligand binding, displacement of 125I-NDP-MSH, HEK293 cells expressing hMC4R; set-up: expressed in transfected cells; conditions: displacement of 125I-NDP-MSH
Target sequence in this assay (P32245 whole entry): as above

MC4R [14] = molecular target: T5, MC4R; assay: Competitive radioligand binding, displacement of 125I-AGRP, HEK293 cells expressing hMC4R; set-up: expressed in transfected cells; conditions: displacement of 125I-AGRP
Target sequence in this assay (P32245 whole entry): as above
Description: Competitive binding affinity experiments were performed on HEK-293 cells stably expressing the wildtype hMC4R. […] The assay media was carefully aspirated and cells were washed once with assay buffer. Cell were lysed with 500 μL 0.1 M NaOH and 500 μL 1% Triton X-100 for a minimum of 10 min. […] All experiments were performed with duplicate data points and in at least two independent experimental replicates. […] Concentration-response curves and IC50 values were generated and analyzed by the PRISM program (version 4.0. GraphPad Inc.) by a nonlinear regression method. The standard error of the mean (SEM) was derived from the IC50 values from at least two independent experimental replicates.

mMC4R [15] = molecular target: T4, mMC4R; set-up: expressed in transfected cells; conditions: cited from earlier work
MC4R [16] = molecular target: T5, MC4R; assay: AlphaScreen cAMP assay, inverse agonist activity at hMC4R; type: cell-based; set-up: expressed in transfected cells; conditions: Table 10
Target sequence in this assay (P32245 whole entry): as above
Description: The apparent potencies were determined from the inflection point of the normalized sigmoidal dose-response curves.
as §1, §2, §3

MC4R [17] = molecular target: T5, MC4R; set-up: expressed in transfected cells; conditions: Table 10; AGRP(87-132), previously reported by Jackson et al.; read-out: hMC4R 125I-NDP-MSH IC50; cited from earlier work
Target sequence in this assay (P32245 whole entry): as above

mMC1R [18] = molecular target: T1, mMC1R; conditions: Table 6; previously described (Wilczynski 2004); read-out: Agonist mMC1R EC50; cited from earlier work
mMC3R [19] = molecular target: T2, mMC3R; conditions: Table 6, previously described (Wilczynski 2004), cited from earlier work
mMC5R [20] = molecular target: T3, mMC5R; conditions: Table 6; previously described (Wilczynski 2004); read-out: Inverse Agonist mMC5R EC50; cited from earlier work
rats = conditions: ICV administration into rats; cited from earlier work
hMC4R-Kir7.1(M125R) [21] = molecular target: T6, hMC4R-Kir7.1(M125R); conditions: up to 100 nM; literature; cited from earlier work
mMC1R [22] = molecular target: T1, mMC1R; conditions: displacement of radiolabeled NDP-MSH; read-out: Ki app, mMC1R; cited from earlier work
mMC3R [23] = molecular target: T2, mMC3R; conditions: displacement of radiolabeled NDP-MSH; read-out: Ki app, mMC3R; cited from earlier work
mMC4R [24] = molecular target: T4, mMC4R; set-up: expressed in transfected cells; conditions: displacement of radiolabeled NDP-MSH; read-out: Ki app, mMC4R; cited from earlier work

20 (cyclo(PRFFNFF[dP]); SMILES N=C(N)NCCC[C@@H]1NC(=O)[C@@H]2CCCN2C(=O)[C@H]2CCCN2C(=O)[C@H](Cc2ccccc2)NC(=O)[C@H](Cc2ccccc2)NC(=O)[C@H](CC(N)=O)NC(=O)[C@H](Cc2ccccc2)NC(=O)[C@H](Cc2ccccc2)NC1=O) [Peptide 20]
mMC1R percent maximal stimulatory response (mMC1R [1]): 70% @ 100 μM
mMC3R percent maximal stimulatory response (mMC3R [2]): 35% @
mMC5R percent maximal stimulatory response (mMC5R [3]): 25% @
fold selectivity for the mMC4R over the mMC3R (mMC4R [4]): 600 fold and 630 fold
mMC4R percent maximal stimulatory response (mMC4R [5]): 35% @

ASP-YY: synthesized ASP variant with two residues changed to the homologous AGRP residues (KKVVRPRTPLSAPCVATRNSCKPPAPACCDPCASCYCRFFRSACYCRVLSLNC; UniProt P42127 80-132, looked up, variant Q115Y S124Y)
functional antagonist potency, hMC1R (hMC1R): 3.9 nM
functional antagonist potency, hMC1R (hMC1R; listed as Agouti-YY): 4.0 nM
functional antagonist potency, hMC3R (hMC3R): 2.6 nM
functional antagonist potency, hMC4R (MC4R [6]): 0.5 nM

H-DPAATAYCRFFNAFCYARKL-OH (disulfide 8-15) [20 residue peptide]
EC50 (MC1R): 960 nM
MC4R antagonist pA2 (MC4R [7]): 6.9

Tyr-c[Cys-Arg-Phe-Phe-Asn-Ala-Phe-Cys]-Tyr (YCRFFNAFCY; disulfide 2-9) [hAGRP (109-118)]
MC3R antagonist pA2 (MC3R): No activity
MC4R antagonist pA2 (MC4R [8]): 6.8 ± 0.4
EC50 (MC1R; listed as H-Tyr-c[Cys-Arg-Phe-Phe-Asn-Ala-Phe-Cys]-Tyr-OH): 2890 nM
EC50 (MC1R): 3000 nM

c[Pro-Arg-Phe-Phe-Val-Ala-Phe-DPro] [Peptide 13 (Example 1)]
fold selective for Kir7.1 signaling over cAMP antagonism (hMC4R-Kir7.1(M125R) [9]): 4,000 fold
cumulative food intake after ICV administration vs vehicle (free-feeding mice [10]): significant, prolonged decrease in cumulative food intake at 4, 6, 8, 24, 48, and 72 h
food intake after IT administration vs vehicle (free-feeding mice [11]): no effect on food intake compared to vehicle
fold decreased antagonist potency relative to MDE3-119-8c at the hMC4R (MC4R [12]): 310 fold
fold decreased binding affinity compared to NDP-MSH (MC4R [13]): 200 fold
fold decreased binding affinity compared to AGRP (MC4R [14]): 200 fold
fold decreased antagonist potency compared to the Dap substitution at the mMC4R (mMC4R [15]; previous SAR study (ref 52)): 630 fold

hAGRP(86-132): C-terminal domain of agouti-related protein, purchased from Peptides International (RCVRLHESCLGQQVPCCDPCATCYCRFFNAFCYCRKLGTAMNPCSRT) [reference compound]
fold selective for cAMP over Kir7.1 signaling (hMC4R-Kir7.1(M125R) [9]): 2 fold
hMC4R Inverse Agonist, decrease from basal signal (MC4R [16]): (-35%)
IC50 (MC4R [17]): 11 ± 1 nM

hAGRP(87-132): truncated human agouti-related protein, previously described in Wilczynski et al. 2004
EC50 (mMC1R [18]): > 100000 nM
Antagonist mMC3R pA2 (mMC3R [19]): 8.9 ± 0.2
Ki (mMC3R [19]; read-out: Antagonist mMC3R Ki): 1.3 nM
EC50 (mMC5R [20]): > 100000 nM
increase of 24 h food intake above saline (rats): 42%
Antagonist mMC4R pA2 (mMC4R [15]; Table 6, previously described (Wilczynski 2004)): 9.4 ± 1.0
Ki (mMC4R [15]; Table 6, previously described (Wilczynski 2004), read-out: Antagonist mMC4R Ki): 0.4 nM

mini-AGRP: truncated form of AGRP (AGRP87-120, C105A) (CVRLHESCLGQQVPCCDPAATCYCRFFNAFCYCR; ends and bridges not checked; cysteine pairing not given here; UniProt O00253 87-120, looked up, fragment C105A)
effect on thallium flux (hMC4R-Kir7.1(M125R) [21]): did not affect thallium flux at concentrations up to 100 nM
increase of 24 h food intake above saline (rats): 21%

B1: mASP: recombinant mouse agouti-signaling protein (protein, UniProt Q03288 23-131, looked up)
Agouti-signaling protein: HLALEETLGDDRSLRSNSSMNSLDFSSVSIVALNKKSKKISRKEAEKRKRSSKKKASMKKVARPPPPSPCVATRDSCKPPAPACCDPCASCQCRFFGSACTCRVLNPNC
Ki (mMC1R [22]): 2.6 nM
Ki (mMC3R [23]): 190 nM
Ki (mMC4R [24]): 54 nM
